Paper doi:10.1101/2023.12.05.570199

Molecular target: AliC (residues 24-655) (Streptococcus pneumoniae)
Test: crystal structure

Substance: AliC (residues 24-655) (natural protein)
- stoichiometry N: 2
